The values that follow come from US20200148774A1 (Genentech, published 2020).

The target in assay [1] is T1, human CLL-1 on cells (endogenous on HL-60, EOL-1 and other AML cell lines and CD14+ monocytes); recombinant on … (human, UniProt Q5QGZ9 1-265).
T1 construct: also called 293AD/huCLL-1; tumor-derived CLL-1
T1 sequence: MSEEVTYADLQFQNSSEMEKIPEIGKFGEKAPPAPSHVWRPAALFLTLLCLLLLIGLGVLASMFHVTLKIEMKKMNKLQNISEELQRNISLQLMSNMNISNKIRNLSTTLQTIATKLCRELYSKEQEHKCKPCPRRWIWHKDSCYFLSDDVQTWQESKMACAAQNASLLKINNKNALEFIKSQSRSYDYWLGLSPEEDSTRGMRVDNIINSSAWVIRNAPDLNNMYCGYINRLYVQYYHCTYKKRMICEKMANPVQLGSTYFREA
The assay can be described thus: Scatchard (125I-antibody competition), HL-60 cells. On the procedure: (§1) Anti-CLL-1 antibodies were [I¹²⁵] labeled using the indirect lodogen method. […] Competition assay mixtures of 50 μL volume containing a fixed concentration of [1¹²⁵] labeled antibody and decreasing concentrations of serially diluted, unlabeled antibody were placed into 96-well plates. HEK293AD cells stably expressing recombinant hu or cynoCLL-1 or HL-60 tumor cells expressing endogenous CLL-1 were cultured in growth media at 37° C. in 5% CO₂. Cells were detached from the flask using Sigma Cell Dissociation Solution and were washed with binding buffer, which consisted of Dulbecco's Modified Eagle Medium (DMEM) with 1% bovine serum albumin (BSA), […] and 0.1% sodium azide. The washed cells were added to the 96 well plates at a density of 100,000 cells in 0.2 mL of binding buffer. […] The final concentration of the unlabeled antibody in the competition assay ranged from 1000 nM through ten 2-fold dilution steps to a 0 nM buffer-only assay. Competition assays were carried out in triplicate. Competition assays were incubated for 2 hours at room temperature. […] The filters were counted on a Wallac Wizard 1470 gamma counter (PerkinElmer Life and Analytical Sciences Inc.; Wellesley, Mass.). The binding data was evaluated using NewLigand software (Genentech), which uses the fitting algorithm of Munson and Robard to determine the binding affinity of the antibody (Munson and Robard 1980).

Assay [2] has as its target T2, recombinant human CLL-1 extracellular domain (ECD, amino acids 65-265) fused to an N-terminal Flag (human, UniProt Q5QGZ9 65-265).
T2 construct: The construct and the K244Q SNP are stated for the immunogen; they are not written as a piece; also called huCLL-1-Flag; huCLL-1
T2 chain: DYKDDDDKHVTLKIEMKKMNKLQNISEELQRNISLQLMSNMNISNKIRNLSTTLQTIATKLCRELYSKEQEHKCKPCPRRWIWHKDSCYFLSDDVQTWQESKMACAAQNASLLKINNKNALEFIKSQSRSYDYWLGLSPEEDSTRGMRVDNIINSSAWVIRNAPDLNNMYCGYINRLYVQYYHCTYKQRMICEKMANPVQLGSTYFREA
Briefly: SPR (Biacore T200), IgG captured by anti-human Fc, human CLL-1 as analyte. On the procedure: The binding affinity of the antibodies in this section was determined by BIAcore™ T200 Format. Briefly, BIAcore™ research grade CM5 chips were activated with 1-ethyl-3-(3-dimethylaminopropyl) carbodiimide (EDC) and N-hydroxysuccinimide (NHS) reagents according to the supplier's instructions. Goat anti-human Fc IgGs were coupled to the chips to achieve approximately 10,000 response units (RU) in each flow cell. Unreacted coupling groups were blocked with 1M ethanolamine. For kinetics measurements, antibodies were captured to achieve approximately 300 RU. Three-fold serial dilutions of human CLL-1 was injected in HBS-P buffer (0.01M HEPES pH7.4, 0.15M NaCl, 0.005% surfactant P20) at 25° C. with a flow rate of 30 μl/min. Association rates (kon) and dissociation rates (koff) were calculated using a 1:1 Langmuir binding model (BIAcore™ T200 Evaluation Software version 2.0). The equilibrium dissociation constant (Kd) was calculated as the ratio koff/kon.
(In general: Surface plasmon resonance follows binding to a sensor surface in real time, without labels.)

Assay [3] has as its target T2, recombinant human CLL-1 extracellular …. Briefly: SPR (Biacore), chimeric IgG captured by anti-human IgG, CLL-1 as analyte. On the procedure: (§2) The chimeric anti-CLL-1 human IgG were captured by mouse anti-human IgG coated on the CM5 sensor chip. […] Association rates (kon) and dissociation rates (koff) were calculated using a simple one-to-one Langmuir binding model. The equilibrium dissociation constant (KD) was calculated as the ratio koff/kon.

Assay [4] addresses T3, recombinant cynomolgus CLL-1 extracellular domain (ECD, amino acids 65-265) fused to an N-terminal Flag (cynomolgus monkey).
T3 construct: Construct stated for the immunogen; also called CynoCLL-1 Flag; cynoCLL-1
T3 chain: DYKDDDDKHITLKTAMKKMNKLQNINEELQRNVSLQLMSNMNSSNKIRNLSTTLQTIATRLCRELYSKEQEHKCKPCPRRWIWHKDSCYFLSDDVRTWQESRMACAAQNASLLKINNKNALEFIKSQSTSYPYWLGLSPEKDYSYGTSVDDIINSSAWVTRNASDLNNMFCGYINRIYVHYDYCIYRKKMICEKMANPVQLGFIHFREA
Described as above. As to the method: as §2

The target in assay [5] is T1, human CLL-1 on cells (endogenous on …). Briefly: Scatchard (125I-antibody competition), 293AD/huCLL-1 cells. On the procedure: as §1
The target of assay [6] is T4, cynomolgus CLL-1 on cells (recombinant on HEK293AD cells) (cynomolgus monkey).
T4 construct: also called 293AD/cynoCLL-1; 293AD/cynoCLL1
T4 chain: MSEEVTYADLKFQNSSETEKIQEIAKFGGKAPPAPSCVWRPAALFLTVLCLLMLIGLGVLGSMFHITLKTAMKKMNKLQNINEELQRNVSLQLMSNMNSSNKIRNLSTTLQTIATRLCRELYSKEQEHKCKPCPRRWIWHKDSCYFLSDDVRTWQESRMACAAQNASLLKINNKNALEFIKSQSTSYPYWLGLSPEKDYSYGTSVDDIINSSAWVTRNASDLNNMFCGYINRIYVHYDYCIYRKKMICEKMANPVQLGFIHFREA
Briefly: Scatchard (125I-antibody competition), 293AD/cynoCLL-1 cells. As to the method: as §1

The target in assay [7] is T5, hCD3ε (human, UniProt P07766 23-126).
T5 construct: Also used for the value printed only as 'hCD3 (0.05 nM'); also called human CD3ε polypeptide
Briefly: SPR (Biacore); target printed only as hCD3; format not stated, not the Fab measurement.

In assay [8] the target is T5, hCD3ε. The assay can be described thus: SPR (Biacore), Fab; Fab.
Assay [9] concerns the target T5, hCD3ε. Briefly: SPR (Biacore), Fab.

T5 sequence (P07766 23-126): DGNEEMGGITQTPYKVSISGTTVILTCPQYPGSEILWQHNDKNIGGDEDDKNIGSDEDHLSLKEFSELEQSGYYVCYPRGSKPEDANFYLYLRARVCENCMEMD

B1: ch6E7 (antibody, V domains shown)
VH: QVQLQQSGPELVKPGASVKISCKASGYSFTDYYMHWVKQSHIKSLEWIGRINPYNGAAFYSQNFKDKASLTVDKSSSTAYMELHSLTSEDSAVYYCAIERGADLEGYAMDYWGQGTSVTVSS
VL: DIVLTQSPSSLIVSLGQRATISCRASQSVSTSSYNYMHWYQQKPGQPPKLLLKYASNLESGVPARFSGSGSGTDFTLNIHPVEEEDTATYYCQHSWEIPLTFGAGTKLEIK
notes: chimeric version of m6E7, human IgG; also called chimeric 6E7; Chimeric 6E7
Turning to B1, the Kd (usually a measure of binding affinity in units of concentration) turned out to be 650 pM in [1]; 959 pM in [2]; 900 pM in [3]; 1100 pM in assay [4]; 800 pM in assay [5]; 1000 pM in [6]. The values for the koff in assay [3] and in assay [4] were 0.00044 s⁻¹ and 0.00046 s⁻¹, respectively. The kon (commonly the second-order rate constant of association) in assay [3] was determined as 460000 M⁻¹ s⁻¹; in assay [4], 400000 M⁻¹ s⁻¹.

B2: ch21C9 (antibody, V domains shown)
VH: EVQLQQSGPELVKPGASVKMSCKASGYTFTDYYLDWVKQSHGESFEWIGRVNPYNGGTIYNQKFKGKATLTVDKSSSTAYMDLNSLTSEDSAVYYCARDHYRYDPLLDYWGQGTTLTVSS
VL: DIQMTQSHKFMSTSVGDRVSITCKASQDVSTAVAWFQQKPGQSPKLLIYSPSYRYTGVPDRFTGSGSGTDFTFTISSVQAEDLAVYYCQQLYSTPYTFGGGTKLEIK
notes: chimeric version of m21C9, human IgG; also called chimeric 21C9; Chimeric 21C9
On to B2, for which the Kd stood at 450 pM in assay [1]; 8620 pM in assay [2]; 9700 pM in assay [3]; 7100 pM in [4]; 590 pM in [5]; 1200 pM in [6]. For the same molecule, the koff (in general, the rate constant with which the complex falls apart) in [3] was determined as 0.0024 s⁻¹; in assay [4], 0.0012 s⁻¹. Besides, the kon stood at 250000 M⁻¹ s⁻¹ in [3] and 160000 M⁻¹ s⁻¹ in [4].

B3: 38E4v11 (antibody, V domains shown)
VH: EVQLVQSGAEVKKPGASVKVSCKASGFTFTSYYIHWVRQAPGQGLEWIGWIYPENDNTKYNEKFKDRVTITADTSTSTAYLELSSLRSEDTAVYYCARDGYSRYYFDYWGQGTLVTVSS
VL: DIVMTQSPDSLAVSLGERATINCKSSQSLLNSRTRKNYLAWYQQKPGQSPKLLIYWTSTRKSGVPDRFSGSGSGTDFTLTISSLQAEDVAVYYCTQSFILRTFGQGTKVEIK
notes: also called h38E4v11
B3: the Kd in the assay with hCD3ε [7] amounted to 50 pM.

B4: 38E4v11 Fab (Fab, V domains shown)
VH: EVQLVQSGAEVKKPGASVKVSCKASGFTFTSYYIHWVRQAPGQGLEWIGWIYPENDNTKYNEKFKDRVTITADTSTSTAYLELSSLRSEDTAVYYCARDGYSRYYFDYWGQGTLVTVSS
VL: DIVMTQSPDSLAVSLGERATINCKSSQSLLNSRTRKNYLAWYQQKPGQSPKLLIYWTSTRKSGVPDRFSGSGSGTDFTLTISSLQAEDVAVYYCTQSFILRTFGQGTKVEIK
notes: Fab; also called 38E4v11 (Fab Biacore measurements)
Regarding B4, the kon in the assay with hCD3ε [8] worked out at 5e+07 M⁻¹ s⁻¹. Moreover, in the assay with hCD3ε [9], binding was characterised by a dissociation constant (Kd) of 32 pM and the koff was determined as 0.0016 s⁻¹.
